Experimental data published in US20250163116A1, “NEW METHOD TO TREAT INFECTIOUS DISEASES” (INSERM (INSTITUT NATIONAL DE LA SANTÉ ET DE LA RECHERCHE …, priority 2022, published 2025).

How the values were obtained:
[1] = test system: Balb/c mice challenged with LPS; assay: LPS-induced endotoxemia (sepsis) in mice; assay type: in vivo; conditions: for sepsis-associated mortality / survival rate: 2 μg/mouse i.v.
Description: FIG. 9: ANGPTL4 protects against LPS-induced endotoxemia by preventing vascular dysfunction and organ failure. A-B, Balb/c mice received LPS (5 mg kg-1, i.p.); 30 min after LPS challenge, mice received recombinant human ANGPTL4 (2 μg, intravenously), or vehicle as a control. A, A schematic representation of the protocol used. B, Survival curve (n=16 mice per group): **** P<0.0001; two-sided log-rank Mantel-Cox survival analysis. C,D, Balb/c mice received LPS (5 mg kg-1, i.p.); 30 min after LPS challenge, mice received nANGPTL4 (2 μg, intravenously), or vehicle as a control. C, A schematic representation of the protocol used. D, Survival curve (n=6 mice per group): ** P=0.0033; two-sided log-rank Mantel-Cox survival analysis. E, F, Balb/c mice received LPS (5 mg kg-1, i.p.); 30 min after LPS challenge, mice received Peptide 1 (2 μg, intravenously), or vehicle as a control. E, A schematic representation of the protocol used. F, Survival curve (n=6 mice per group): * P=0.0163; two-sided log-rank Mantel-Cox survival analysis. G, Balb/c mice received LPS (5 mg kg-1. i.p.): 30 min after LPS challenge, mice received recombinant human peptide P9 (2 μg. intravenously). or vehicle as a control. Survival curves (n=6 mice per group). *** P<0.001: two-sided log-rank Mantel-Cox survival analysis. H. Balb/c mice received LPS (4 mg kg-1. i.p.) together with anti-ANGPTL4 blocking antibody (10 μg kg-1. i.v) or vehicle as a control. 18 h after LPS challenge. mice were perfused with Evans blue for 1 h. were killed and brain were extracted. Quantification analysis of Evans blue extravasation (n=4 mice per group). Bars and error bars show the mean±s.e.m., respectively, from two independent experiments: *** P<0.001: NS, not significant (P>0.05) one-way ANOVA Tukey's multiple comparison test.
Female BALB/c mice, obtained from Janvier Labs, 9-10 weeks of age, were administered LPS at 5 mg/kg intraperitoneally and survival was monitored for 72 h (n=12 per group). BALB/c mice were randomly divided into 2 groups: LPS and LPS+Angptl4. Angptl4 (2 μg/mice) or vehicle (physiological saline solution) was administered intravenously 30 min after LPS challenge. In some experiments, blood serum, kidney and lung were collected at 18 h post-LPS challenge. Kidney and lungs were fixed in 4% PFA, embedded in paraffin, and 5-μm sections were cut from each block and stained with H&E. The stained sections were observed and acquired using a slide scanner (Lamina, Perkin Elmer). Analysis of the images was performed using ImageJ software (NIH).
Since severe endothelial dysfunction, leading to dysregulation of hemostasis and vascular dysfunction, is central to the progression to organ failure during sepsis, we analysed whether ANGPTL4 could play a protective role in sepsis, using a lipopolysaccharide (LPS)-induced endotoxemia (FIG. 9A). After LPS-challenge (5 mg kg-1, i.p.), all mice died within two days (FIG. 9B).

[2] = test system: HDMECs infected with N. meningitidis; assay: Release of inflammatory cytokines and markers of vascular inflammation and endothelial alteration by infected HDMECs; assay type: cell-based, human; conditions: data not shown
Excerpt: (§1) In contrast to brain microvascular endothelial cells that resist to meningococcal infection, the integrity of dermal microvascular endothelial cell (HDMECs) monolayer was massively impaired upon infection, as observed with the loss of adherens junctions and cell detachment (data not shown). Since HDMEC poorly produces ANGPTL4 as compared to HBMEC (data not shown), we analysed whether the addition of recombinant human ANGPTL4 might exert a protective effect on these cells. […] Additionally, while infection was accompanied by the massive release of inflammatory cytokines (TNF-α, IL-6, IL-8), markers of vascular inflammation (E-selectin, ICAM-1, VCAM-1), and markers of endothelial cell alteration (Endoglin, Thrombomodulin), all these markers were reduced by 35 to 80% upon treatment with ANGPTL4 (data not shown).

[3] = test system: Src kinase and VE-cadherin phosphorylation; assay: Src kinase and VE-cadherin phosphorylation in infected HDMECs; assay type: cell-based, human; conditions: added 30 min after initiation of infection
Excerpt: as §1

[4] = test system: HDMECs infected with S. pneumoniae TIGR4; assay: Integrity of HDMECs infected with S. pneumoniae; assay type: cell-based, human; conditions: 1 μg/mL for 2 h after 30 min infection
Description: FIG. 6: ANGPTL4 protects dermal microvascular endothelial cells from infection by S. pneumoniae. HDMECs were infected with S. pneumoniae TIGR4 for 30 min and treated with 1 μg/mL of recombinant human ANGPTL4 for 2 h. Cells were fixed and stained for cellular actin, VE-cadherin and DAPI and analyzed by fluorescent microscopy. Quantifications of VE-cadherin enrichment at intercellular junctions was performed on 30 fields with Image J software. Kruskal-Wallis test *** P<0.0001.
To address whether ANGPTL-4 could also provide vascular protection from Gram-positive bacteria, we investigated the effect of ANGPTL-4 on HDMECs exposed to infection by the Gram-positive bacterium Streptococcus pneumoniae, one of the major causative agents of pneumonia, sepsis, meningitis and other morbidities.

[5] = test system: HDMECs infected with Nm 2C4.3; assay: Integrity of HDMEC monolayers infected with N. meningitidis (VE-cadherin at intercellular junctions, immunofluorescence); assay type: cell-based, human; conditions: uninfected HDMECs
[6] = 18 h post-LPS challenge, data not shown

Molecule	sepsis-associated mortality / survival rate ([1]; LPS 5 mg kg-1 i.p.)	reduction of TNF-α, IL-6, IL-8, E-selectin, ICAM-1, VCAM-1, Endoglin, Thrombomodulin release [2]	Src kinase and VE-cadherin phosphorylation [3]	endothelial integrity (cell junction organization) upon S. pneumoniae infection [4]	LPS-induced acute lung injury (histopathology) [1, 6]	LPS-induced renal haemorrhage [1, 6]	mice surviving LPS challenge ([1]; LPS 5 mg kg-1 i.p., 2 μg/mouse i.v. 30 min after LPS, all control mice died within two days)	overall weight loss ([1]; compared to vehicle-treated control groups)	body temperature ([1]; data not shown)	effect on organization of the adherens junctions formed by HDMECs [5]
cANGPTL4: C-terminal fragment of ANGPTL4, aa 164-406, fibrinogen-like domain, purchased from R&D Systems (protein, listed as Homo sapiens) RLPEMAQPVDPAHNVSRLHRLPRDCQELFQVGERQSGLFEIQPQGSPPFLVNCKMTSDGGWTVIQRRHDGSVDFNRPWEAYKAGFGDPHGEFWLGLEKVHSITGDRNSRLAVQLRDWDGNAELLQFSVHLGGEDTAYSLQLTAPVAGQLGATTVPPSGLSVPFSTWDQDHDLRRDKNCAKSLSGGWWFGTCSHSNLNGQYFRSIPQQRQKLKKGIFWKTWRGRYYPLQATTMLIQPMAAEAAS	did not significantly increased the survival rate									
ANGPTL4: Recombinant human ANGPTL4 (Angiopoietin-like 4), full length, SEQ ID NO: 1, purchased from R&D Systems (protein, listed as Homo sapiens) MSGAPTAGAALMLCAATAVLLSAQGGPVQSKSPRFASWDEMNVLAHGLLQLGQGLREHAERTRSQLSALERRLSACGSACQGTEGSTDLPLAPESRVDPEVLHSLQTQLKAQNSRIQQLFHKVAQQQRHLEKQHLRIQHLQSQFGLLDHKHLDHEVAKPARRKRLPEMAQPVDPAHNVSRLHRLPRDCQELFQVGERQSGLFEIQPQGSPPFLVNCKMTSDGGWTVIQRRHDGSVDFNRPWEAYKAGFGDPHGEFWLGLEKVHSITGDRNSRLAVQLRDWDGNAELLQFSVHLGGEDTAYSLQLTAPVAGQLGATTVPPSGLSVPFSTWDQDHDLRRDKNCAKSLSGGWWFGTCSHSNLNGQYFRSIPQQRQKLKKGIFWKTWRGRYYPLQATTMLIQPMAAEAAS	markedly reduced sepsis-associated mortality rate	35 to 80%	significantly reduced	preserved endothelial integrity	no pathological signs	no sign of haemorrhage	80%	not significantly reduced	rapidly stabilized	no significant effect
nANGPTL4: N-terminal fragment of ANGPTL4, aa 26-164, SEQ ID NO: 24, purchased from R&D Systems (protein, nANGPTL4) GPVQSKSPRFASWDEMNVLAHGLLQLGQGLREHAERTRSQLSALERRLSACGSACQGTEGSTDLPLAPESRVDPEVLHSLQTQLKAQNSRIQQLFHKVAQQQRHLEKQHLRIQHLQSQFGLLDHKHLDHEVAKPARRK	reduced sepsis-associated mortality rate as efficiently as the full-length protein									
